Test results published in PMC6224480, “Insights into Kinesin-1 Activation from the Crystal Structure of KLC2 Bound to JIP3” (Structure(London, England:1993), 2018).

Legend:
[1] = CD spectroscopy; type: physicochemical; conditions: 20°C, 20 mM potassium phosphate pH 7.5, 0.5 mM DTT, SELCON3, 0.29, 0.14 and 0.086 mg/ml
Description: (§1) All CD spectra were recorded on a Chirascan CD spectrometer (Applied Photophysics) in quartz cuvettes with a 0.1 cm path length. Data were recorded at 20°C between 260 - 180 nm in 1 nm increments and a 2 nm bandwidth over an average of two scans. The KLC2^TPR-myc and Trp-JIP3^LZ proteins were dialysed extensively into 20 mM potassium phosphate pH 7.5, 0.5 mM DTT. Spectra were collected from KLC2^TPR-myc samples at concentrations of 0.29, 0.14 and 0.086 mg/ml. Trp-JIP3^LZ spectra were collected at 0.15, 0.074 and 0.044 mg/ml. One spectrum was recorded for each sample at each concentration and background-corrected by subtraction of a buffer-only spectrum. Corrected spectra were converted to units of mean residue ellipticity and deconvolved using the Dichroweb server ([Whitmore and Wallace, 2008]). KLC2^TPR-myc and Trp-JIP3^LZ spectra were analysed using the SELCON3 and CONTIN algorithms, respectively, using reference dataset set 4 ([Sreerama et al., 1999], [van Stokkum et al., 1990]). For each protein, the mean percentage of each secondary structure type, and the corresponding standard deviation, was calculated from the values obtained from the three concentrations. The secondary structure content for KLC2^TPR-myc and Trp-JIP3^LZ were calculated using the KLC2^TPR:JIP3^LZ crystal structure using the STRIDE server (http://webclu.bio.wzw.tum.de/cgi-bin/stride/stridecgi.py) ([Frishman and Argos, 1995]).

[2] = Secondary structure content calculated from the KLC2^TPR:JIP3^LZ crystal structure (STRIDE)
Description: as §1, with “Corrected spectra were converted to units of mean residue ellipticity and deconvolved using the Dichroweb server ([Whitmore and Wallace, 2008]).” left out

[3] = SEC-MALLS; type: physicochemical; conditions: 25 mM HEPES pH 7.5, 0.1 M NaCl, 1 mM TCEP
Description: Fifty microliters of JIP3^LZ was injected onto a WTC-030S5 column, pre-equilibrated with buffer containing 25 mM HEPES pH 7.5, 0.1 M NaCl and 1 mM TCEP at a flow rate of 1 ml/min. Data were recorded using a DAWN 8+ multi-angle light scattering (LS) detector, an Optilab T-rEX differential refractive index (dRI) detector and UV absorbance (UV) detector (Wyatt Technology) and analyzed with the Astra 6.2 software package provided by the manufacturer (Wyatt Technology).

[4] = system: KLC2^TPR; test: ITC of KLC2^TPR binding to GST3C-JIP3^LZ, two-stage sequential model; design: species or system murine; conditions: for K, macroscopic association constant / ΔH / –TΔS: ITC, 25°C, 0.5 M NaCl, pH 7.5, globally fitted over four experiments; for K, macroscopic association constant: 25 mM HEPES, 5 mM MgCl2, 1 mM TCEP
Description: For ITC studies with the KLC2^TPR and GST-JIP3^LZ, the high KLC2^TPR concentrations required to use this protein as titrant necessitated a higher salt concentration than that used for crystallographic studies. The KLC2^TPR was prepared as above for crystallographic studies but the final size exclusion chromatography step was performed in 500 mM NaCl, 25 mM HEPES, 5mM MgCl2, 1 mM TCEP (final pH 7.5). The GST-JIP3^LZ protein was bound to glutathione sepharose resin in batch as described above for the JIP3^LZ. The GST-JIP3^LZ protein was eluted in 0.25 M NaCl, 50 mM TRIS.HCl, 1 mM TCEP, 25 mM glutathione; final pH 7.5, and purified by size exclusion chromatography on a Superdex 200 16/600 column (GE Healthcare) equilibrated in 500 mM NaCl, 25 mM HEPES, 5mM MgCl2 and 1 mM TCEP (final pH 7.5).
To study the binding of the KLC2^TPR to GST3C-JIP3^LZ, the proteins were prepared by size exclusion chromatography in 0.5 M NaCl, 25 mM HEPES, 5 mM MgCl2, 1 mM TCEP, final pH 7.5. ITC measurements were performed on a MicroCal iTC200 calorimeter (Malvern) at 25°C, with a differential power of 5.0 μcal/s and stirring at 750 rpm. Experiments consisted of an initial sacrificial 0.5 μl injection, followed 120 s later by 19 injections of 2 μl spread over 4 s, spaced 120 s apart. Thermograms were integrated and corrected for heats of dilution using NITPIC (http://biophysics.swmed.edu/MBR/software.html). The resulting isotherms were analysed in SEDPHAT (http://www.analyticalultracentrifugation.com/sedphat/) ([Keller et al., 2012], [Zhao et al., 2015]). The isotherms from these experiments were globally fitted with the A + B + B → AB + B → ABB model. […] Figures were prepared using GUSSI (http://biophysics.swmed.edu/MBR/software.html).

[5] = stage A + B + B → BA + B (first KLC2^TPR)
[6] = stage BA + B → BAB (second KLC2^TPR)

B1: KLC2^TPR-myc: murine KLC2 residues 191-480 with … fused to the C-terminus (protein)
chain: GYEIPARLRTLHNLVIQYASQGRYEVAVPLCKQALEDLEKTSGHDHPDVATMLNILALVYRDQNKYKDAAHLLNDALAIREKTLGKDHPAVAATLNNLAVLYGKRGKYKEAEPLCKRALEIREKVLGKFHPDVAKQLSNLALLCQNQGKAEEVEYYYRRALEIYATRLGPDDPNVAKTKNNLASCYLKQGKYQDAETLYKEILTRAHEKEFGSVNGENKPIWMHAEEREESKDKRRDRRPMEYGSWYKACKVDSPTVNTTLRTLGALYRPEGKLEAAHTLEDCASRSRKQ
modifications: left off: His6-SUMO, N-terminal, cleaved | myc (…), C-terminal, kept
secondary structure content by CD versus crystal structure [1]: very similar to that calculated from the KLC2^TPR:JIP3^LZ crystal structure

B2: JIP3^LZ: JIP3 leucine zipper domain, residues 417-487 of murine JIP3 isoform A (protein)
chain: WMGKEVGNLLLENSQLLETKNALNVVKNDLIAKVDQLSGEQEVLKGELEAAKQAKVKLENRIKELEEELKRV
modifications: left off: GST, N-terminal, cleaved
notes: JIP3 leucine zipper domain, residues 417-487 of murine JIP3 isoform A
α-helical content calculated from crystal structure [2]: 77% | oligomeric state in solution [3]: stable dimer

B3: GST-JIP3^LZ: GST and 3C site fused to murine JIP3 isoform A leucine zipper, residues 417-487 (protein, UniProt Q9ESN9 417-487, looked up, fragment)
chain: MGKEVGNLLLENSQLLETKNALNVVKNDLIAKVDQLSGEQEVLKGELEAAKQAKVKLENRIKELEEELKRV
modifications: isoform A N-terminal GST tag, 3C site
thermodynamic driving force ([4]; binding of the first KLC2^TPR): enthalpically driven | thermodynamic driving force ([4]; binding of the second KLC2^TPR): entropically driven | K, macroscopic association constant [4, 5]: 0.1317 µM⁻¹ | ΔH [4, 5]: -18.756 kcal/mol | –TΔS [4, 5]: 11.772 kcal/mol | K, macroscopic association constant [4, 6]: 0.1315 µM⁻¹ | ΔH [4, 6]: 0.952 kcal/mol | –TΔS [4, 6]: -7.935 kcal/mol | cooperativity of binding of two KLC2^TPR subunits ([4]; suggested by very similar macroscopic association constants): positive cooperativity
